Measurements as given in patent US20260167714A1 (COHERUS BIOSCIENCES, published 2026).

Assays:
[1] = biological target: T1, human ILT4 expressed on cells (human, UniProt Q8N423 22-597); assay: cell-based or functional assay
[2] = biological target: T2, recombinant human ILT4 (LILRB2) (human, UniProt Q8N423 22-460); assay: SPR, Biacore T200, mAb captured on anti-Fc, ILT4 injected, medium resolution, 25 C
T2 construct: Bought protein (Acro Biosystems or R&D Systems); also called ILTR4
Experimental: (§1) Label-free SPR analysis on a Biacore T200 instrument was utilized to measure antibody affinity to ILT4. CM4 sensor chips from Cytiva Inc. were utilized for all medium resolution analyses. Either anti-mouse Fc specific or anti-human Fc specific capture surfaces were prepared using standard amine coupling chemistry. Mouse, Chimera or Humanized mAbs were captured to their respective surfaces and ILT4 was injected across the surfaces from 101 nM to 0.79 nM in a 2-fold serial dilution series at a flow rate of 100 μL/min. The association phase was followed for 90 sec. while the dissociation phase was followed for 1200 sec. due to the medium resolution analysis implemented here. The sensorgrams were double-referenced and fit globally to a 1:1 interaction model with a term included for mass transport, and the equilibrium dissociation constant was calculated as KD=koff/kₒₙ. […] All kinetic experiments were performed at 25° C. in a buffer consisting of Hepes-buffered saline, pH 7.4, with 0.05% polysorbate 20 (HBS-P+) and 100 μg/ml Bovine Serum Albumin (BSA).

[3] = biological target: T1, human ILT4 expressed on cells; assay: flow cytometry, blockade of PE-HLA-G tetramer binding to CHO-S/ILT4 cells, experiment 2
Experimental: (§2) In the second blocking experiment, the primary antibody dilutions were made by diluting antibody to 15 μg/ml in FACS buffer. Three independent sets of eleven 2.5-fold serial dilutions were then made in FACS buffer from 15 μg/ml to 0.002 μg/ml. Each dilution set was handled independently, and 50 μl from each was added to cells in duplicate. Control wells received FACS buffer with no antibody. Wells were mixed and incubated for 30 minutes at 4 degrees C. Cells were washed twice in FACS buffer.
(§3) In both blocking experiments, phycoerythrin (PE)-conjugated HLA-G tetramer was diluted in FACS buffer to 5 μg/ml and 100 μl per well was added to cells. Cells were incubated at 4 degrees C. for 30 minutes, washed twice in FACS buffer, and resuspended in 250 μl FACS buffer with 0.1 μg/ml propidium iodide.
(§4) Cells were acquired on an Attune flow cytometer, with 5000 propidium iodide-negative cells collected per sample, and MFI was recorded. Relative blocking activity was calculated with the following formula: 100−(Sample MFI−Background MFI)/(Top MFI−Background MFI)*100. Prism software (Graphpad) was used to plot MFI and relative blocking activity for each sample. The blocking potency for each antibody, represented as IC₅₀, was calculated with Prism software.

[4] = biological target: T1, human ILT4 expressed on cells; assay: flow cytometry, blockade of PE-HLA-G tetramer (5 µg/ml) binding to CHO-S/ILT4 cells, experiment 2
Experimental: as §2, §3, §4

[5] = biological target: T1, human ILT4 expressed on cells; assay: flow cytometry blocking assay: ILT4-expressing CHO cells preincubated with antibody, then PE-HLA-G; HLA-G binding MFI falls from about 105000 (no antibody) to near 0
Experimental: as §2, §3, §4

[6] = biological target: T1, human ILT4 expressed on cells; assay: flow based HLA-G blocking assay
[7] = biological target: T2, recombinant human ILT4 (LILRB2); assay: KinExA, solution equilibrium, n-curve analysis
Experimental: Kinetic Exclusion Assay (KinExA®) was performed to measure the equilibrium binding affinity and kinetics between human ILT4 and four humanized LALA-Fc modified antibodies in solution. For affinity analysis, the equilibrium dissociation constant, KD, was experimentally determined and reflects the strength of the binding interaction. The rate of association, kₒₙ, was also experimentally determined, while the rate of dissociation, koff, is calculated based on the following equation: koff=KD×kₒₙ
The binding affinity (KD), association (kₒₙ), and dissociation rate constants (koff) were measured for 4 different Humanized LALA IgG antibodies to ILT4 using KinExA. An n-curve analysis of at least two different curves, run at two different CBP concentrations, was used to determine the KD of the interactions The ILT4 was used as the concentration reference for all curves. All of the binding systems have low error and well defined 95% confidence intervals giving confidence to the measurements: […]

[8] = biological target: T2, recombinant human ILT4 (LILRB2); assay: SPR, high resolution kinetics, triplicate, LALA antibody
[9] = biological target: T3, LILRA1 (human, UniProt O75019 17-461); assay: SPR, Biacore 8K, mAb captured on anti-human Fc, analyte injected
T3 construct: Bought protein; limits of the extracellular domain are marked by bold type not visible here; whole entry named; also called recombinant human LILRA1
Experimental: (§5) SPR was used to determine the specificity of four humanized anti-ILT4 mAbs for binding to LILRB2 and to determine any cross-reactivity with nine other LILRA and LILRB family members. LILR proteins were purchased from Acro Biosystems or R&D Systems, with sequence provided below. The studies were performed with a Biacore 8K instrument using a CM4 sensor chip with a running buffer of HBS-P+, 100 μg/mL BSA. Anti-human Fc specific capture surfaces were prepared using standard amine coupling chemistry. MAb was captured to flow cell 2 with flow cell 1 serving as the reference flow cell. Each of the nine family members and LILRB2 were injected at 100 nM at 30 μL/min for 90 sec with 240 sec of dissociation. […] All sensorgrams were doubled-referenced during processing of the data.

[10] = biological target: T4, LILRA2 (human, UniProt Q8N149 24-449); assay: as above
T4 construct: Bought protein; limits of the extracellular domain are marked by bold type not visible here; whole entry named; also called recombinant human LILRA2
Experimental: as §5

[11] = biological target: T5, LILRA3 (human, UniProt Q8N6C8 24-439); assay: as above
T5 construct: Bought protein; limits of the part used are marked by bold type not visible here; whole entry named; also called recombinant human LILRA3
Experimental: as §5

[12] = biological target: T6, LILRA4 (human, UniProt P59901 24-446); assay: as above
T6 construct: Bought protein; limits of the extracellular domain are marked by bold type not visible here; whole entry named; also called recombinant human LILRA4
Experimental: as §5

[13] = biological target: T7, LILRA5 (human, UniProt A6NI73 42-268); assay: as above
T7 construct: Bought protein; limits of the extracellular domain are marked by bold type not visible here; whole entry named; also called recombinant human LILRA5
Experimental: as §5

[14] = biological target: T8, LILRA6 (human, UniProt Q6PI73 24-447); assay: as above
T8 construct: Bought protein; limits of the extracellular domain are marked by bold type not visible here; whole entry named; also called recombinant human LILRA6
Experimental: as §5

[15] = biological target: T9, LILRB1 (human, UniProt Q8NHL6 24-461); assay: as above
T9 construct: Bought protein; limits of the extracellular domain are marked by bold type not visible here; whole entry named; also called recombinant human LILRB1; ILT2
Experimental: as §5

[16] = biological target: T10, LILRB3 (human, UniProt O75022 24-443); assay: as above
T10 construct: Bought protein; limits of the extracellular domain are marked by bold type not visible here; whole entry named; also called recombinant human LILRB3; ILT5
Experimental: as §5

[17] = biological target: T11, LILRB4 (human, UniProt Q8NHJ6 22-259); assay: as above
T11 construct: Bought protein; limits of the extracellular domain are marked by bold type not visible here; whole entry named; also called recombinant human LILRB4; ILT3
Experimental: as §5

[18] = biological target: T2, recombinant human ILT4 (LILRB2); assay: SPR, Biacore T200, medium resolution; koff held at its limit of 4.27e-5 s^-1
Experimental: as §1

[19] = biological target: T2, recombinant human ILT4 (LILRB2); assay: SPR, high resolution kinetics, triplicate, LALA antibody; 95% CI in parentheses
[20] = biological target: T2, recombinant human ILT4 (LILRB2); assay: SPR, Biacore 8K, mAb captured on anti-human Fc, LILRB2 at 100 nM; legend: ++++ tight binding (<100 pM KD)
Experimental: as §5

T1 sequence (Q8N423 22-597): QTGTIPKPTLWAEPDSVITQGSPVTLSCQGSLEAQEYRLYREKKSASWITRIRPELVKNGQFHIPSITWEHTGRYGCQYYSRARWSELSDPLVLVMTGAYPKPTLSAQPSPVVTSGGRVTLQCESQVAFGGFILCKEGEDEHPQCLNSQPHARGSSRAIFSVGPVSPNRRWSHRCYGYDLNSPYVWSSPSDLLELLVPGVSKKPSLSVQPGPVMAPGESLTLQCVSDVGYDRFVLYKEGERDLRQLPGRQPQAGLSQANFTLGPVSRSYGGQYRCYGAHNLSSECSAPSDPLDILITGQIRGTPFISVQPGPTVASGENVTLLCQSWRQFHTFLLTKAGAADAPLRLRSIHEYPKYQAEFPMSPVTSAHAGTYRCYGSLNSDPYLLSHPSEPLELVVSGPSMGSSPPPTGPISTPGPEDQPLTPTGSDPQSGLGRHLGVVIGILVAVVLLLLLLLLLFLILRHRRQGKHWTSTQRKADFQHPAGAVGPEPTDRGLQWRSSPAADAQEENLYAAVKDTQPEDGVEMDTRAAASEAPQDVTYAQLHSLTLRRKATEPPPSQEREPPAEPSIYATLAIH
T2 sequence (Q8N423 other isoform, or with tags, fused parts or gaps limits assumed): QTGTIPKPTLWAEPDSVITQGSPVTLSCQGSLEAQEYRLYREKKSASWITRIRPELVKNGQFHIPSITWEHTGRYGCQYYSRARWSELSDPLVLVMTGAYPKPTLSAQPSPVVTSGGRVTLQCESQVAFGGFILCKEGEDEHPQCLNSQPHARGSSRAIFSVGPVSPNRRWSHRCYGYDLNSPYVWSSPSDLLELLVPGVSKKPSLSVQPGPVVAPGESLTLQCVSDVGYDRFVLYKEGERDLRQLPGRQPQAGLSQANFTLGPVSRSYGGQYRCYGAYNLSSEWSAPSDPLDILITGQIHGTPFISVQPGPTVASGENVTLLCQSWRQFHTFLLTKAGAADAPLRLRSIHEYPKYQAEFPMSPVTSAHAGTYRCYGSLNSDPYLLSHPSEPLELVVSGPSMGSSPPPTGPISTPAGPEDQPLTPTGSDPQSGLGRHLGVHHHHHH
T4 sequence (Q8N149 other isoform, or with tags, fused parts or gaps): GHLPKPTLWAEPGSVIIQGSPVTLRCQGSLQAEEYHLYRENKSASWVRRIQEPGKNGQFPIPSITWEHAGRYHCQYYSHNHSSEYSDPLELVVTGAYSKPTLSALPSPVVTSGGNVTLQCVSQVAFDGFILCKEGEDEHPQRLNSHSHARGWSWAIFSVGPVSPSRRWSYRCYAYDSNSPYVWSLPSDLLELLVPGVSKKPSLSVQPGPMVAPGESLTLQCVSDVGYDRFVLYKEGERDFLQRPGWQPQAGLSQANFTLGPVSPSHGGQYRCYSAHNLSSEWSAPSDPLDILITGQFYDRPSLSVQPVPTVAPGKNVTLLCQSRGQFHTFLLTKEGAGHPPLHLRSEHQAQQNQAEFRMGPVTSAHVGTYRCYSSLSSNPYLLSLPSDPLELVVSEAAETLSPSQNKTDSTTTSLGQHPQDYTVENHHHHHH
T5 sequence (Q8N6C8 24-439 A105V limits assumed): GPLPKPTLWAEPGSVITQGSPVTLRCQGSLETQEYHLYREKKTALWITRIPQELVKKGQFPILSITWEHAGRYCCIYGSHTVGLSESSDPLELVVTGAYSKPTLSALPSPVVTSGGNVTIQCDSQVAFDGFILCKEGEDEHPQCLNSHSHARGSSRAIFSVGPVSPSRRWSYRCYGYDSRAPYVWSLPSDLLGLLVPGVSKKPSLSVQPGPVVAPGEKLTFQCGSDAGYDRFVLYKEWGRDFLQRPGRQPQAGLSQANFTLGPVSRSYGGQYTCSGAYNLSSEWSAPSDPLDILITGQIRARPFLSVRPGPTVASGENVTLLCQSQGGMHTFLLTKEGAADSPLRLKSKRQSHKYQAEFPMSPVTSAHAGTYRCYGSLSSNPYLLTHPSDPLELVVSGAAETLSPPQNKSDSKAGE
T9 sequence (Q8NHL6 other isoform, or with tags, fused parts or gaps): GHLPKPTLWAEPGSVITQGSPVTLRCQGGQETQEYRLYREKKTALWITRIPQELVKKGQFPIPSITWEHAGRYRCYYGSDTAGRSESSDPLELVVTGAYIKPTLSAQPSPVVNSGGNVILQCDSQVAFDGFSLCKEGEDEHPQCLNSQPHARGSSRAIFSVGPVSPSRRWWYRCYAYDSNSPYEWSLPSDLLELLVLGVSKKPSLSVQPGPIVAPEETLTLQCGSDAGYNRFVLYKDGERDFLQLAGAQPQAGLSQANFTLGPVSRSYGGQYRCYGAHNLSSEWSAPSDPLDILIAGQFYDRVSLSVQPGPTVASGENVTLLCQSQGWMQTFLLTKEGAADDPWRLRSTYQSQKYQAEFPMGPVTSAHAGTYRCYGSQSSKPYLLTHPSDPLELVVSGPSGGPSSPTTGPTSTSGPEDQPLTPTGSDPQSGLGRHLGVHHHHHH
T6 sequence (P59901 other isoform, or with tags, fused parts or gaps): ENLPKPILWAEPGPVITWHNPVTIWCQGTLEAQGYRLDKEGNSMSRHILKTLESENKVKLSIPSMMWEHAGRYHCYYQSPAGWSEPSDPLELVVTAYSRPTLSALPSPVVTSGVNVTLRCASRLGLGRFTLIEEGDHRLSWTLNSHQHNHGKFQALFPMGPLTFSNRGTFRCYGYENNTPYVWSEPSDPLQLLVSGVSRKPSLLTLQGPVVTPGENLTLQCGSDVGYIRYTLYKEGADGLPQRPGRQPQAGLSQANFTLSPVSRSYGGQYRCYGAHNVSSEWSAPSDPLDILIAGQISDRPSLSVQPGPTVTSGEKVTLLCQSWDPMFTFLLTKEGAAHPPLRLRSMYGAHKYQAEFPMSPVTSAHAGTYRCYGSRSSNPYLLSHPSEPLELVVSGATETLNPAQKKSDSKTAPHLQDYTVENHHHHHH
T10 sequence (O75022 other isoform, or with tags, fused parts or gaps): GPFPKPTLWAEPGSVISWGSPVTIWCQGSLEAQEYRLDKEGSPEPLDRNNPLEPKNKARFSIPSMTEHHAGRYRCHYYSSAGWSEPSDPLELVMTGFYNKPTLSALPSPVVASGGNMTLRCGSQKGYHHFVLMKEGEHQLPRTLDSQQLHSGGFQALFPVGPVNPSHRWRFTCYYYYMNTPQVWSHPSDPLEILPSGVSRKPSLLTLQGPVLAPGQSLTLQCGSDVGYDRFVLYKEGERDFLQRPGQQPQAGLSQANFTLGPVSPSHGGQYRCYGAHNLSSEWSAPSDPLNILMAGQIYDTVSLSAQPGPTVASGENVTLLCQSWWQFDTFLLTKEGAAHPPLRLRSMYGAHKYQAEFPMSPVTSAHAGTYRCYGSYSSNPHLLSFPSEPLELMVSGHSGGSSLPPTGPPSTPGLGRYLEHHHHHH
T7 sequence (A6NI73 other isoform, or with tags, fused parts or gaps): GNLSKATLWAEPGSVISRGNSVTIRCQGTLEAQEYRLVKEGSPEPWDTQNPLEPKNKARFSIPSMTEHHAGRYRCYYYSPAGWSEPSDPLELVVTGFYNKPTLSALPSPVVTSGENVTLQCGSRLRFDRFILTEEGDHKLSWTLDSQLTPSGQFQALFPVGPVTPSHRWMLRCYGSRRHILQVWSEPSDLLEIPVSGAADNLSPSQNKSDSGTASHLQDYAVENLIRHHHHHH
T3 sequence (O75019 other isoform, or with tags, fused parts or gaps): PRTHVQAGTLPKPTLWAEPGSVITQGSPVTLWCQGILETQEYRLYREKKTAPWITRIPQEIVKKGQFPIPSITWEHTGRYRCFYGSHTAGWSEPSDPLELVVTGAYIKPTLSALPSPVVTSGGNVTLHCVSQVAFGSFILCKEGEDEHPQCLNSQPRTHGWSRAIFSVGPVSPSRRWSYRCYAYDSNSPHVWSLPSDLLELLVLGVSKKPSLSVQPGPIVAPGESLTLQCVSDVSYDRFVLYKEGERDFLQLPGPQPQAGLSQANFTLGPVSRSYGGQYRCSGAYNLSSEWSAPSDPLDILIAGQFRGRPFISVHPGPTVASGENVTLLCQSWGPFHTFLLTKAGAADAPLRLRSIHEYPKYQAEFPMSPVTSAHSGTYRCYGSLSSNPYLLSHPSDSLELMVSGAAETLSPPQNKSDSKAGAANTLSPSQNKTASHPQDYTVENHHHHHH
T8 sequence (Q6PI73 other isoform, or with tags, fused parts or gaps): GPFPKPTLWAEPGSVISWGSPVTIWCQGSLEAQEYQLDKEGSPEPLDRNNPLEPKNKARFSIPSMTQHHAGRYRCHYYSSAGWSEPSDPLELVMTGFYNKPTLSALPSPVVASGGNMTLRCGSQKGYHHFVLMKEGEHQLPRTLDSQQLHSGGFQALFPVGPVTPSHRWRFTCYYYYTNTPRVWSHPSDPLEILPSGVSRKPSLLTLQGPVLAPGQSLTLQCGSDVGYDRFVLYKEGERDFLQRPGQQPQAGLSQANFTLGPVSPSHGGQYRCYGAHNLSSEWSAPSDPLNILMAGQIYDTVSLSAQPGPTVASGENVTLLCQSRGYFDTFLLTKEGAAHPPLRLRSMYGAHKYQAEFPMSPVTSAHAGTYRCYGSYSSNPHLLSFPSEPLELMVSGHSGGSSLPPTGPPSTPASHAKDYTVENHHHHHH
T11 sequence (Q8NHJ6 other isoform, or with tags, fused parts or gaps): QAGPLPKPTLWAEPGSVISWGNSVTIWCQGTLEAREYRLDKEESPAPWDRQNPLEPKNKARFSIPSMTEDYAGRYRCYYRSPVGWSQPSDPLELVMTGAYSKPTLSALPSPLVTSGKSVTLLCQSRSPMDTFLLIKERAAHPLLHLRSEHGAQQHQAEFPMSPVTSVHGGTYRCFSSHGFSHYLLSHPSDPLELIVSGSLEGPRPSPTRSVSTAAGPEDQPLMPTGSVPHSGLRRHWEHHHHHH

B1: L45S4 (antibody, IgG2a, V domains shown)
VH: EVQLQQSGPELVKPGASVKISCKASGYTFTDYYMNWVKQSHGKSLEWIGDINPNNGGTSYNQKFKGKATLTVDKSSSTAYMELRSLTSEDSAVYYCARGGAELTGTYWYFDVWGTGTTVTVSS
VL: DIQMTQSPASLSISVGETVTITCRASENIYSNLAWYQQKQGKSPQVLVYGATNLADGVPSRFSGSGSGTQYSLKIKSLQSEDFGSYYCQHFWDSPFTFGSGTKLEIK
notes: also called Murine 45; mouse anti-human ILT4 antibody L45S4
For B1, the “IL-6 secretion by LPS-stimulated M2 macrophages (MSD), fold over control” value [1] was 2 fold, the Kd [2] was 0.21 nM and the koff [2] was 8.4e-05 s⁻¹. For the same binder, the kon [2] was 401000 M⁻¹ s⁻¹, the “fold decrease of PE-HLA-G MFI” value [3] was no more than 69 fold and the IC50 [4] was 0.044 µg/mL. For the same binder, the IC50 [5] was 0.071 µg/mL.

B2: L41S5 (antibody, IgG2a, V domains shown)
VH: QVQLQQSGAELVKPGASVKISCKASGYAFSSYWMNWVKQRPGKGLEWIGQIYPGHGDTNYNGKFKGKATLTADKSSSTAYMQLSSLTSEDSAVYFCAKEGSELGRLFAYWGQGTLVTVSA
VL: QIVLTQSPALMSASPGEKVTMTCSASSSVSFMYWYQQKPRSSPKPWIYLTSNLASGVPARFSGSGSGTSYSLTISSMEAEDAATYYCQQWSSNPPTFGGGTKLEIK
notes: also called mouse anti-human ILT4 antibody L41S5
With B2 the “fold decrease of PE-HLA-G MFI” value [3] was no more than 14 fold and the IC50 [4] was 0.134 µg/mL.

B3: Hz77-LALA (antibody, human IgG1, kappa, L234A L235A, V domains shown)
VH: QVQLVQSGAEVKKPGSSVKVSCKASGYSFTGYSVNWVRQAPGQGLEWIGRINPYNGDIFNNQKFKGRATITVDKSTSTAYMELSSLRSEDTAVYYCARGTTVGGAWFAYWGQGTLVTVSS
VL: DIVMTQSPDSLAVSLGERATINCRASESVDSYGYSFLHWYQQKPGQPPKLLIYLASNLESGIPDRFSGSGSGTDFTLTISSLQAEDVAVYYCQQSNEDLMYTFGGGTKVEIKR
notes: Humanized L77S2, human IgG1 L234A/L235A, kappa; also called Humanized 77_01; Hz 77 01
For B3, the IC50 [6] was 0.176 µg/mL, the Kd [7] was 0.00546 nM and the Kd [8] was 0.0089 nM. For the same binder, the koff [8] was 4.24e-05 s⁻¹, the binding result [9] was “no binding (tested: 100 nM)” and the binding result [10] was “no binding (tested: 100 nM)”. B3: no binding (tested: 100 nM) [11]; no binding (tested: 100 nM) [12]; no binding (tested: 100 nM) [13]. B3: no binding (tested: 100 nM) [14]; no binding (tested: 100 nM) [15]; no binding (tested: 100 nM) [16]. For the same binder, the binding result [17] was “no binding (tested: 100 nM)”, the Kd [18] was no more than 0.052 nM and the koff [18] was no more than 4.27e-05 s⁻¹. For the same binder, the kon [19] was 4.78e+06 M⁻¹ s⁻¹, the kon [2] was 835000 M⁻¹ s⁻¹ and the KD [20] was less than 0.1 nM.
